These results are taken from PMC3553952 (Nucleic Acids Research, 2012).

The target in one series is T1, Pab-aCPSF1 (Pyrococcus abyssi, UniProt Q9V0P0 1-648).
T1 sequence: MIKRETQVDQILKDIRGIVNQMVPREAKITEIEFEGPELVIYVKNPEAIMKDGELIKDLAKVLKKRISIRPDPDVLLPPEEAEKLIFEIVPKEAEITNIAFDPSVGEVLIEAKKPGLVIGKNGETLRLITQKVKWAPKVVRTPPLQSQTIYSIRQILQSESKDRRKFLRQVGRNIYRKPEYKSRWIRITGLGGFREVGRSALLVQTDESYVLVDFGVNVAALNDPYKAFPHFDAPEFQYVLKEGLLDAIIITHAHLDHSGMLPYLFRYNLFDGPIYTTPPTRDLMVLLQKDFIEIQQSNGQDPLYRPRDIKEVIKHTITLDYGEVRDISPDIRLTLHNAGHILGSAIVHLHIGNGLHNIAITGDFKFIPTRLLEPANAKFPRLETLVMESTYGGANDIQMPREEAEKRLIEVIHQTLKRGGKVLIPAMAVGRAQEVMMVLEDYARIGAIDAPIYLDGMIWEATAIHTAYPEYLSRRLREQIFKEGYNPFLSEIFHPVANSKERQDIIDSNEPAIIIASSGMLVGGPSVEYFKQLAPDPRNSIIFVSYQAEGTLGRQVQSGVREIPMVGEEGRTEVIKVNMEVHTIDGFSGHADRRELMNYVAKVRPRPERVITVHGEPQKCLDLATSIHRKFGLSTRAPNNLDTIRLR
Put plainly: EMSA. For orientation: In EMSA bound probe runs differently from free probe, usually more slowly.

The series “SEC” deals with the molecule itself. In words: SEC.

B1: sR47Mut21U (structured_RNA)
RNA: GAUGAAGAUGAUGAGCUCGGUAGGUCCUGAGGAGUGAUGAGGAUCUUGAGUGCUGAUUCACCUU
As for B1, the binding result in the series with Pab-aCPSF1 is reported as “binds”.

B2: sR47MutCG (structured_RNA)
RNA: GAUGAAGAUGAUGAGCUCGGCAGGUCCUGAGGAGUGAUGAGGAUCUGCUGAGUGCUGAUUCACCUU
On to B2, for which the binding result with Pab-aCPSF1 is recorded as “binds”.

B3: Pab-aCPSF1ΔKH (variant missing the first 179 residues of Pab-aCPSF1) (domain or fragment, Pyrococcus abyssi, UniProt Q9V0P0 180-648, looked up)
chain: EYKSRWIRITGLGGFREVGRSALLVQTDESYVLVDFGVNVAALNDPYKAFPHFDAPEFQYVLKEGLLDAIIITHAHLDHSGMLPYLFRYNLFDGPIYTTPPTRDLMVLLQKDFIEIQQSNGQDPLYRPRDIKEVIKHTITLDYGEVRDISPDIRLTLHNAGHILGSAIVHLHIGNGLHNIAITGDFKFIPTRLLEPANAKFPRLETLVMESTYGGANDIQMPREEAEKRLIEVIHQTLKRGGKVLIPAMAVGRAQEVMMVLEDYARIGAIDAPIYLDGMIWEATAIHTAYPEYLSRRLREQIFKEGYNPFLSEIFHPVANSKERQDIIDSNEPAIIIASSGMLVGGPSVEYFKQLAPDPRNSIIFVSYQAEGTLGRQVQSGVREIPMVGEEGRTEVIKVNMEVHTIDGFSGHADRRELMNYVAKVRPRPERVITVHGEPQKCLDLATSIHRKFGLSTRAPNNLDTIRLR
The stoichiometry N is the number of molecules, sites or subunits per partner or assembly. As for B3, the “stoichiometry N” value in “SEC” was found to be 2.
